{
  "source": "patent US20160091498A1",
  "about": "(H LEE MOFFITT CANCER CENTER AND RESEARCH INSTITUTE, published 2016)",
  "binders": {"B1": {"name": "H2B(25-49) (peptide)", "peptide": "DGKKRKRSRKESYSVYVYKVLKQVH-{Biotin′}", "notes": "also called unphosphorylated H2B; human histone H2B peptide spanning amino acids 25-49"}},
  "biological_target": "T1, NPAT (UniProt Q14207 1-1427)",
  "T1 construct": "other lysate proteins were present",
  "T1 sequence (looked up)": "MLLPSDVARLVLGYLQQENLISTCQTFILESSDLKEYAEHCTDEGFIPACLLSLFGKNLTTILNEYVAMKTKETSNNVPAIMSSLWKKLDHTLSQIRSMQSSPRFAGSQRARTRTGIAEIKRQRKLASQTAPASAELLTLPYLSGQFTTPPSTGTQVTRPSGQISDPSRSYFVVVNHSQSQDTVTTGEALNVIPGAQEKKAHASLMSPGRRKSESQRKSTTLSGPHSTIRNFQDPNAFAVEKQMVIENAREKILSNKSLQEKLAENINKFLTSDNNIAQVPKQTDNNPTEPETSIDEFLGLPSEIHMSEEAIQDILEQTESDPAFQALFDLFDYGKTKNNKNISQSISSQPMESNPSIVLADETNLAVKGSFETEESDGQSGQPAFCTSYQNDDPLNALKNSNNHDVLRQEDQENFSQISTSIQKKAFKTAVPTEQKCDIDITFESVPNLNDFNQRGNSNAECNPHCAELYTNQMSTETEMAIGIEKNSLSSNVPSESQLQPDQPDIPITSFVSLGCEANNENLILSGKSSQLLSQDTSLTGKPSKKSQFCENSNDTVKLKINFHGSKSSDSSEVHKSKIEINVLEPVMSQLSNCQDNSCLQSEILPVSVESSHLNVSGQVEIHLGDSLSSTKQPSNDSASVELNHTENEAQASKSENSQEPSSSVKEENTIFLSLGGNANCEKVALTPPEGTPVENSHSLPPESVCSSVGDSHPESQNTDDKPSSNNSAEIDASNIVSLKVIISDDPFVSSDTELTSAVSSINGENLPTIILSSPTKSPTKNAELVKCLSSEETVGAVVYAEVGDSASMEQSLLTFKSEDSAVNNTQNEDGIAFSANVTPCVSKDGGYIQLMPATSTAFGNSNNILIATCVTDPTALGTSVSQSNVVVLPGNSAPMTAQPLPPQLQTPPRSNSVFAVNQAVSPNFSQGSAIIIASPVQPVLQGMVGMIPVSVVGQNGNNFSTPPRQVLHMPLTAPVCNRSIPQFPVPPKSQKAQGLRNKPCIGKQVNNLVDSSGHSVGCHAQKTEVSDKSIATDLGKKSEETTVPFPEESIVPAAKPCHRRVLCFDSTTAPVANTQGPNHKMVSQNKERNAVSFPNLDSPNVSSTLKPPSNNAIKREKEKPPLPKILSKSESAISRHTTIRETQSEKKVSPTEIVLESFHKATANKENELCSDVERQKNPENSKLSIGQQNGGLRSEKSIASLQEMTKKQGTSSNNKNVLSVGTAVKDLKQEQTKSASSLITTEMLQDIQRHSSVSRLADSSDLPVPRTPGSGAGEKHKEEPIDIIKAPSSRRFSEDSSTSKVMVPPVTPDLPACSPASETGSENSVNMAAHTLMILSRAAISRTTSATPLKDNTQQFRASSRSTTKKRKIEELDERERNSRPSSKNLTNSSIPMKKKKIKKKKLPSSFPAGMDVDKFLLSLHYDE",
  "assay": "filter binding: peptide on nitrocellulose, HEK293 lysate, NPAT immunoblot",
  "note": "Primed or numbered codes have the meaning given here. No end group written: not given here. Biotin′ = not defined here",
  "data": [
    {"binder": "B1", "values": [
      {"measurement": "binding result", "value": "binds"}
    ]}
  ]
}
